B1: KCNA3 (parent)
chain: YQSGGRIRRPVNVPIDIFSEEIRF
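Also: lentivirally expressed fusions sorted by FACS into six bins by GFP to DsRed ratio, PSI derived from sequencing read proportions per bin multiplied by bin number.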

The variants in this series derive from B1. Briefly: protein stability index of a GFP-peptide fusion (GPS, HEK-293T) (PSI 1-6); higher = more stable. The conditions noted are these: c terminus: a fixed tail appended.
For the variant YQSGGRIRRPVNVPIDIFSHEIRF [E20H], the protein stability index stood at 2.04.
The result for YQSGGRIRRPVNVPIDIFSREIRF [E20R] reads 1.61.
Turning to YQSGGRIRRPVNVPIDIFSSEIRF [E20S], the protein stability index came out at 1.82.
On to YQSGGRIRRPVNVPIDIFSKEIRF [E20K], for which the protein stability index was found to be 2.29.
The same measure for YQSGGRIRRPVNVPIDIFSNEIRF [E20N]: 2.52.
The result for YQSGGRIRRPVNVPIDIFSQEIRF [E20Q] reads 1.68.
On to YQSGGRIRRPVNVPIDIFSPEIRF [E20P], for which the protein stability index came to 2.11.
For the variant YQSGGRIRRPVNVPIDIFSMEIRF [E20M], the protein stability index stood at 1.96.
Take YQSGGRIRRPVNVPIDIFSDEIRF [E20D]: the protein stability index worked out at 2.26.
As to YQSGGRIRRPVNVPIDIFSCEIRF [E20C], the protein stability index was determined as 2.19.
For the variant YQSGGRIRRPVNVPIDIFSFEIRF [E20F], the protein stability index was found to be 2.93.
Regarding YQSGGRIRRPVNVPIDIFSAEIRF [E20A], the protein stability index was found to be 2.06.
The result for YQSGGRIRRPVNVPIDIFSGEIRF [E20G] reads 1.37; that for YQSGGRIRRPVNVPIDIFSTEIRF [E20T], 1.53.
For the variant YQSGGRIRRPVNVPIDIFSYEIRF [E20Y], the protein stability index was 2.34.
In the case of YQSGGRIRRPVNVPIDIFSECIRF [E21C], the protein stability index was found to be 2.51.
YQSGGRIRRPVNVPIDIFSEDIRF [E21D]: the protein stability index was 1.56.
The same measure for YQSGGRIRRPVNVPIDIFSESIRF [E21S]: 1.48; for YQSGGRIRRPVNVPIDIFSENIRF [E21N]: 2.33.
As to YQSGGRIRRPVNVPIDIFSETIRF [E21T], the protein stability index was found to be 1.95.
YQSGGRIRRPVNVPIDIFSEAIRF [E21A]: the protein stability index was determined as 2.27.
The same measure for YQSGGRIRRPVNVPIDIFSEKIRF [E21K]: 1.84; for YQSGGRIRRPVNVPIDIFSERIRF [E21R]: 2.38; for YQSGGRIRRPVNVPIDIFSEFIRF [E21F]: 1.62.
Take YQSGGRIRRPVNVPIDIFSEIIRF [E21I]: the protein stability index came out at 1.6.
For YQSGGRIRRPVNVPIDIFSEHIRF [E21H], the protein stability index amounted to 2.
Turning to YQSGGRIRRPVNVPIDIFSEMIRF [E21M], the protein stability index stood at 1.87.
Consider YQSGGRIRRPVNVPIDIFSEYIRF [E21Y], for which the protein stability index is 2.56.
Turning to YQSGGRIRRPVNVPIDIFSEQIRF [E21Q], the protein stability index is 2.75.
Turning to YQSGGRIRRPVNVPIDIFSEVIRF [E21V], the protein stability index was determined as 1.97.
The same measure for YQSGGRIRRPVNVPIDIFSELIRF [E21L]: 2.09; for YQSGGRIRRPVNVPIDIFSEPIRF [E21P]: 1.65.
YQSGGRIRRPVNSPIDIFSEEIRF [V13S]: the protein stability index was 2.11.
As for YQSGGRIRRPVNFPIDIFSEEIRF [V13F], the protein stability index was 1.86.
With YQSGGRIRRPVNMPIDIFSEEIRF [V13M], the protein stability index came out at 2.25.
Consider YQSGGRIRRPVNDPIDIFSEEIRF [V13D], for which the protein stability index worked out at 2.14.
Regarding YQSGGRIRRPVNRPIDIFSEEIRF [V13R], the protein stability index is 2.01.
YQSGGRIRRPVNHPIDIFSEEIRF [V13H]: the protein stability index is 2.19.
Take YQSGGRIRRPVNGPIDIFSEEIRF [V13G]: the protein stability index was determined as 2.31.
The result for YQSGGRIRRPVNLPIDIFSEEIRF [V13L] reads 1.95; that for YQSGGRIRRPVNWPIDIFSEEIRF [V13W], 2.01.
The result for YQSGGRIRRPVNKPIDIFSEEIRF [V13K] reads 2.36; that for YQSGGRIRRPVNQPIDIFSEEIRF [V13Q], 2.42.
The result for YQSGGRIRRPVNTPIDIFSEEIRF [V13T] reads 1.82; that for YQSGGRIRRPVNIPIDIFSEEIRF [V13I], 2.43.
With YQSGGRIRRPVNYPIDIFSEEIRF [V13Y], the protein stability index was 1.69.
With YQSGGRIRRPVNPPIDIFSEEIRF [V13P], the protein stability index turned out to be 1.86.
The same measure for YQSGGRIRRPVNEPIDIFSEEIRF [V13E]: 2.14.
The same measure for YQSGGRIRRPVNNPIDIFSEEIRF [V13N]: 2.13; for YQSGGRIRRPVNVPIDHFSEEIRF [I17H]: 1.91; for YQSGGRIRRPVNVPIDGFSEEIRF [I17G]: 2.19.
The result for YQSGGRIRRPVNVPIDYFSEEIRF [I17Y] reads 2.79.
Consider YQSGGRIRRPVNVPIDTFSEEIRF [I17T], for which the protein stability index is 1.97.
On to YQSGGRIRRPVNVPIDVFSEEIRF [I17V], for which the protein stability index is 2.48.
With YQSGGRIRRPVNVPIDPFSEEIRF [I17P], the protein stability index stood at 3.32.
Turning to YQSGGRIRRPVNVPIDMFSEEIRF [I17M], the protein stability index was found to be 2.21.
The result for YQSGGRIRRPVNVPIDQFSEEIRF [I17Q] reads 1.89; that for YQSGGRIRRPVNVPIDFFSEEIRF [I17F], 1.76; that for YQSGGRIRRPVNVPIDCFSEEIRF [I17C], 2.48.
With YQSGGRIRRPVNVPIDEFSEEIRF [I17E], the protein stability index is 3.04.
YQSGGRIRRPVNVPIDDFSEEIRF [I17D]: the protein stability index is 2.34.
Consider YQSGGRIRRPVNVPIDWFSEEIRF [I17W], for which the protein stability index came to 1.23.
The result for YQSGGRIRRPVNVPIDSFSEEIRF [I17S] reads 2.33.
With YQSGGRIRRPVNVPIDKFSEEIRF [I17K], the protein stability index worked out at 2.05.
Take YQSGGRIRRPVNVPIDLFSEEIRF [I17L]: the protein stability index is 1.86.
YQSGGRIRRPVNVPIDRFSEEIRF [I17R]: the protein stability index is 2.48.
Turning to YQSGGRIRRPVNVPIDNFSEEIRF [I17N], the protein stability index was found to be 2.74.
YQSGGRIRRPVNVPIDAFSEEIRF [I17A]: the protein stability index was 2.85.
Take YQSGGRIRRPVNVWIDIFSEEIRF [P14W]: the protein stability index was 2.98.
The result for YQSGGRIRRPVNVEIDIFSEEIRF [P14E] reads 1.43; that for YQSGGRIRRPVNVDIDIFSEEIRF [P14D], 1.85.
YQSGGRIRRPVNVFIDIFSEEIRF [P14F]: the protein stability index worked out at 1.07.
For the variant YQSGGRIRRPVNVCIDIFSEEIRF [P14C], the protein stability index worked out at 1.33.
Regarding YQSGGRIRRPVNVKIDIFSEEIRF [P14K], the protein stability index worked out at 1.78.
For the variant YQSGGRIRRPVNVMIDIFSEEIRF [P14M], the protein stability index is 3.25.
As for YQSGGRIRRPVNVTIDIFSEEIRF [P14T], the protein stability index came to 1.81.
With YQSGGRIRRPVNVVIDIFSEEIRF [P14V], the protein stability index amounted to 1.61.
With YQSGGRIRRPVNVSIDIFSEEIRF [P14S], the protein stability index stood at 1.42.
The result for YQSGGRIRRPVNVAIDIFSEEIRF [P14A] reads 1.81; that for YQSGGRIRRPVNVHIDIFSEEIRF [P14H], 2.02; that for YQSGGRIRRPVNVQIDIFSEEIRF [P14Q], 3.61.
Take YQSGGRIRRPVNVGIDIFSEEIRF [P14G]: the protein stability index is 1.9.
YQSGGRIRRPVNVIIDIFSEEIRF [P14I]: the protein stability index is 2.88.
The result for YQSGGRIRRPVNVLIDIFSEEIRF [P14L] reads 2.85.
For the variant YQSGGRIRRPVNVPIDIFTEEIRF [S19T], the protein stability index is 2.6.
Take YQSGGRIRRPVNVPIDIFPEEIRF [S19P]: the protein stability index was determined as 1.73.
YQSGGRIRRPVNVPIDIFQEEIRF [S19Q]: the protein stability index was determined as 1.68.
For the variant YQSGGRIRRPVNVPIDIFEEEIRF [S19E], the protein stability index is 1.87.
Take YQSGGRIRRPVNVPIDIFFEEIRF [S19F]: the protein stability index is 1.51.
For YQSGGRIRRPVNVPIDIFCEEIRF [S19C], the protein stability index came out at 1.39.
Regarding YQSGGRIRRPVNVPIDIFAEEIRF [S19A], the protein stability index was 1.83.
In the case of YQSGGRIRRPVNVPIDIFIEEIRF [S19I], the protein stability index turned out to be 1.85.
Consider YQSGGRIRRPVNVPIDIFNEEIRF [S19N], for which the protein stability index amounted to 2.74.
The result for YQSGGRIRRPVNVPIDIFDEEIRF [S19D] reads 2.43.

The values are drawn from the supplement of paper PMC10567573.
